These results are taken from a protein production outcome set (Wang et al. 2014).

The nature of the series: label from the status in PepcDB records.
Take “MMELIVAQAAASAAELPFLLLQAAAVVGMVSMLMLLQRHIAFDDVRYKIYYGVVFGATGFLLTLLVSEFIQLPSKPYIRSDLLFLAGVVGSWQGGLISLALISAGRFLFGGPALFGAAFLDMSVISAFGIAIYGWMRRRRLTELGMREIAGVFAIRIFAALFAICLTYGLGMVGQDVFLSNVGRRIVGATVGLPMIACLFLLLRSEARAREAVKKREVAARTDSLTGLPNRRALKDHIEMTTRQAPAVPHALLLIEIVNIADVAAYQGDDWADLFWPKLAREICDGENGLLSKFNDPRSFMFGDATLAVVIEGVSLEKSESAGLVLHLHEGLIAFFRSAEAGPVPHLKIGAANLEMVSHQNVASFLRHLSLALRRSENPVQIFPFSFAEKAARDEGVRQMLVRWIKNGKPPIFYQPKFEIHNRRMIGAEALLRAIDTHGQALSPYYVLEIAERHRLLVEFEWSTIEAVVRDLAELPGLDPDFHLAVNISASSFATACFADRVVALLQEMTVPAHRLSIEVTEMSRMPTTDSVQQNFDTLIAAGVRLALDDFGTGYAALTLLARFPFEEVKIDQWMTSRLDQARFRDAVVLAFESAERYGAKLVTEGIETEEQCRILMQMGIRFGQGYLYSPAVPLDRLLPRRAYA”: the protein production entry is listed as “failed”.

Consider “MKKTLIALMLGTISFTTFANDYLPSGGYETLETRSGQLTFENGFEHGVPTNKTSQKLFDELDYQRAVQGYIWATPIVSFYKWKNDHYQTWGTENGQLVYQAGYESKLGGLTYNTSTPYLIGYMNLNNGPIVINLPDTQLRGAVHNMWQIGKEQMTKPGKYVIYKAGDVAPKVKGATLIAMDTNDFFFGVRLMNKDAKVRSTMMNSIQKGITDINGNQLTNKGIYHVKRGIDHKQPRGMEFWEVVNQAIQANPVQERDRMMMDMLRPLGIEKGKPFIPTPKQQSLLKEAAIVGEAMTKNIDFNKTGRLDHAEYGPKGNPWEIATASTPNQDRNNGMDLDGRAAWFYEAVTNDIAMHGMDNGGWGQVYLDNYYSGEKDHGLDGGKHYTLTIKNPNTYADLFWTITVYNVENRAIIENDLGRADVGSNIKGSVYNKDGSITLHFSPKKPKGVAEANWVQTNEKEGWFVYFRAYSPKKAFVDEEPKTLLPNFEEVK”, for which the protein production entry is “failed”. In the case of “MANAENNSVSTRSSELYREISQMDDEIMKLVEQINQPIGRPDFGAIEEARKKLTDKRMKLEELSKRMKEVIKEMEETPKR” it was “failed”; in that of “MVLHVMLGEVVTKFLNMNNGVGEGGSQQRELHGKRKLFRGNDFAFSIARMAVAQICESVEVNPYQESQTREGVRFSSFQESALDTLTDVAVQYIQSIGKTAHLYANLAGRVDGNSLDILQALEDLGSGLGFAGVSDTDHCLADSGVVKDIIRYTGEAEEIPFVYSLPRFPFSKEKKPAPSFSEVGAEPPDEHIPVWLPAFPETELCDRSEETNAATIEGEIPSKENGSSLPSMQLSFDGGGRLEIHKSSKDVGESTEAVVEGNLFLTAPLRFVEKNVSPVVRPLELSNEVVRTNHVPDKHVRNNHHIPILEASAPSDKINNKNWLAISKDVEKVDVARKELTLVRFKIGTTKRSMCLAKNRSFQEEGWFQEGEDKREKTSEIKEKRERIDSQLSTQM”, “failed”; in that of “MHVDIELPLGRATALQRLRAQGFCVLTPAALETLTGMPLDAFDMMLPYWEELAPDLHLKDGGHYRYRRHGCFMQTLQPGQLETVQHRAHWQPTTYNALHGGMERWFEPLSNEMIHLPSWSALLVALGELFAKLRAPQGGRWYIEAHPFRIDTEGGVGRPTPEGAHRDGVDFVAVVFIGRQGVRGGETRVFDAAGPQGVRFTLEQPWTVLLLDDQQVIHESTPLLPLDPADPAVPAHRDTLVLTYRSGGFQAPA”, “not failed”. Then “MIQEIASILVQPGREADFEAGVAQARPLFMRARGCHGVALHRSIEAPQRYTLVVDWETVDNHMVDFRQSADFQEWRKLVGECFAEPPQVHHEQKVL”, with “not failed”; and “MNSEFDVIDRYFTRPRRNALLGPGDDAALIACKPGMDWAISVDTLVAGRHFFPDVDPATLGHKVLAVNLSDMAAMGATPCWATLSLTLTETLAQDDIWLKAFSSGFFALADQYQVELIGGDTTGGPLNISVQIIGEVERGKALRRSGAQPGDDIWVSGHLGDAALALQSLQQHVTLTAQEAAPCLAALHTPMPRVALGKALVNVAHSAIDISDGLLADLGHILDRSGVAATIDFDHIPRSPALKNKLQPENTVTNTICQLAIDCLLAGGDDYELCFTVPESKRDAVIQLAQESGILLSRIGKIIPGKGLTVLGTDSNPLIFKNKGYDHFSAR”, with “failed”.
